Assay type in all cases: binding
Details in all cases: Table IV cross-reactivity; phage clones

In test [1] the test system is Cyno DR5 IgG (SEQ ID NO: 112). Description: Ic50 cross-reactivity ELISA, Cyno DR5 IgG. The protocol: (§1) 1. Coat microtiter plate wells with 80 ul of 1 ug/ml Apo-2L receptor DR5 ECD (SEQ ID NO: 105) (in 50 mM sodium carbonate pH 9.6) at 4° C. overnight.
(§2) 3. Prepare competing receptor solutions (100 ul/sample).
(§3) 6. Transfer 80 ul the mixture of competing receptor and phage from the non-sticky plate to DR5 ECD coated plate and incubate 20 minutes at room temperature.
Peptides of the invention and their Ic 50 values (e.g. determinations of Ic 50 in ELISA based assays using a DR5 ECD (SEQ ID NO: 105) competitor) are identified in Table III below. In the Tables provided herein, “Ic 50” refers to the measure of the concentration of peptide needed to inhibit 50% of Apo-2L (e.g. amino acids 114 to 281 of SEQ ID NO: 1) binding to an Apo-2L receptor molecule (e.g. DR4-IgG (SEQ ID NO: 108) or DR5 ECD (SEQ ID NO: 105) etc.). The peptides are classified such that class 1-class 4 represent a, b, c, and d respectively.
Table IV below provides certain properties of selected peptides, for example Ic50 cross-reactivity data with DR4 and DR5 polypeptides. Table VIII identifies the sequence identification numbers (SEQ ID NOs.) for the various peptides disclosed herein.
Using these methods, the Ic 50 values for various phage clones expressing peptide sequences of interest were generated and are provided in the Tables below. […]

Test [2] concerns Cyno DR4 IgG (SEQ ID NO: 111). Description: Ic50 cross-reactivity ELISA, Cyno DR4 IgG. The protocol: as §1, §2, §3
Sequence of Cyno DR4 IgG (SEQ ID NO: 111) (as listed by the source): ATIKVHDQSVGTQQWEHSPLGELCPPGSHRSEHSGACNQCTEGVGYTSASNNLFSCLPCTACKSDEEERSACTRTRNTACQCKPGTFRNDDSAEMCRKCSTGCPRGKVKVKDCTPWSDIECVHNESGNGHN
(§4) In the Tables provided herein, “Ic 50” refers to the measure of the concentration of peptide needed to inhibit 50% of Apo-2L (e.g. amino acids 114 to 281 of SEQ ID NO: 1) binding to an Apo-2L receptor molecule (e.g. DR4-IgG (SEQ ID NO: 108) or DR5 ECD (SEQ ID NO: 105) etc.). The peptides are classified such that class 1-class 4 represent a, b, c, and d respectively.
(§5) Table VIII identifies the sequence identification numbers (SEQ ID NOs.) for the various peptides disclosed herein.

In test [3] the target is T1, Hu DR5 IgG (SEQ ID NO: 109) (Homo sapiens, UniProt O14763).
T1 construct: Human DR5 IgG fusion polypeptide
T1 sequence (O14763 with tags, fused parts or gaps): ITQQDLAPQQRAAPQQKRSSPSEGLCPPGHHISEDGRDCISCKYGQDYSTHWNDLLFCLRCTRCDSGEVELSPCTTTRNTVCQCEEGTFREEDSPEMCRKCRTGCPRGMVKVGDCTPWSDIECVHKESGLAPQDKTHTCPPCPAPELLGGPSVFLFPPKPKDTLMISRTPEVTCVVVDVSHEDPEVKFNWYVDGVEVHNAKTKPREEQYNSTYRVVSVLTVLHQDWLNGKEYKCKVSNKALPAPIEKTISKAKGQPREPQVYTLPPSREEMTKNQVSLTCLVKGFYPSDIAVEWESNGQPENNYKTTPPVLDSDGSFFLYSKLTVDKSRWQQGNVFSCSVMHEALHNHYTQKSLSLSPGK
Description: Ic50 cross-reactivity ELISA, Hu DR5 IgG. The protocol:
as §1, §2, §3, §4, §5
(In general: ELISA stands for enzyme-linked immunosorbent assay.)

In test [4] the target is T2, Hu TNFR IgG (SEQ ID NO: 110) (Homo sapiens, UniProt P19438).
T2 construct: Human TNFR1 IgG fusion polypeptide
T2 sequence (P19438 with tags, fused parts or gaps): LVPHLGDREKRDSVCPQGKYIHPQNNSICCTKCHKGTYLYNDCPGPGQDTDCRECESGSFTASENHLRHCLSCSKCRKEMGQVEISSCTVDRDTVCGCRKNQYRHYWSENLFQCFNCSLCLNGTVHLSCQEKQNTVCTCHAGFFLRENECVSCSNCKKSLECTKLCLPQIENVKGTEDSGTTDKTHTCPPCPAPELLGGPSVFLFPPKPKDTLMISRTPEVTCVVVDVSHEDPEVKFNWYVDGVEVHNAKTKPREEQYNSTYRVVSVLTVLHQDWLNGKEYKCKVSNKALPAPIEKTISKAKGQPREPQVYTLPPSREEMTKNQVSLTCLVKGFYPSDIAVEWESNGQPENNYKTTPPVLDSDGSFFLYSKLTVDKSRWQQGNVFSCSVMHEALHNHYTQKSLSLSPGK
Description: Ic50 cross-reactivity ELISA, Hu TNFR IgG. The protocol:
as §1, §2, §3, §4, §5

For test [5], the target named is T3, Hu DR4 IgG (SEQ ID NO: 108) (Homo sapiens, UniProt O00220, H141R/R209T).
T3 construct: Human DR4 IgG fusion polypeptide
T3 sequence (O00220 with tags, fused parts or gaps H141R/R209T): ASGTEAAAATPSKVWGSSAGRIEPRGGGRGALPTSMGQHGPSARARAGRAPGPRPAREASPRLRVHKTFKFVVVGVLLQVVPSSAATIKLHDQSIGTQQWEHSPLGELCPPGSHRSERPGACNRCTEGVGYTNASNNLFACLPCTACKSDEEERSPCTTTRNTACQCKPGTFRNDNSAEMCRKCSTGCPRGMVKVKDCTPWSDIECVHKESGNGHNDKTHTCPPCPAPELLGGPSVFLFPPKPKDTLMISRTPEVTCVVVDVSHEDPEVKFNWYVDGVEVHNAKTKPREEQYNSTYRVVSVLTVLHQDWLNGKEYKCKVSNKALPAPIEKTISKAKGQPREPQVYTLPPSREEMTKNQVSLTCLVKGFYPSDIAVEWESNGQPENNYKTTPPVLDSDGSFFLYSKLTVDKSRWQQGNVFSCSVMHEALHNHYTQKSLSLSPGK
Description: Ic50 cross-reactivity ELISA, Hu DR4 IgG. The protocol:
as §1, §2, §3, §4, §5

In the case of “Hd5-11: phage-derived DR5 binding peptide, class C1, SEQ ID NO: 15, first generation (G1) lead (QEVCMTSCDKLMKCNWMAAM)”, the IC50 (usually the concentration at which inhibition is half-maximal) stood at 10 µM in test [1]; 1 µM in test [2]; 0.008 µM in test [3]; 1 µM in test [4]; 1 µM in test [5].

The values above are taken from patent publication US20070066800A1, “Apo2l(trail) receptor binding peptides and uses thereof” (priority 2003, published 2007).
